Results reported in publication PMC10411625, “Rationally designed stapled peptides allosterically inhibit PTBP1–RNA-binding†” (Chemical Science, 2023).
Positions of bridges follow the written chain, without caps; N, C: chain ends. Non-standard residues stand in square brackets, D forms with d. No end group written: not given here. S5 = C=CCCC[C@](C)(N)C(=O)O

T1: PTBP1 RRM1 (single first RNA-recognition motif with the α3-helix) (human)
T1 chain: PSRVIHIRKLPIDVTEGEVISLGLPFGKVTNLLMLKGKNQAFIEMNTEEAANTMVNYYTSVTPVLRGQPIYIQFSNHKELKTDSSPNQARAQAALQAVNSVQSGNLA

B1: P-6F, FITC-labeled variant of P-6 (peptide)
chain: NQARAQAALQAVN
modifications: also: stitched hydrocarbon staple linking residues 145, 149 and 153, FITC label, place not given here
B2: P-2, i, i + 4 hydrocarbon-stapled peptide derived from the PTBP1 α3-helix (peptide)
chain: NQ[S5]RAQ[S5]ALQAVN-NH2
modifications: staple 3-7; also: staple alkene reduced

Legend:
Details in all cases: both partners purified
[1] = target: T1, PTBP1 RRM1 (single first …); assay: fluorescence polarisation; direct binding: FITC-labelled P-6F titrated with the PTBP1 construct
PTBP1 RRM12–L151G mutant [2] = target: PTBP1 RRM12–L151G mutant (human); assay: as above
[3] = target: T1, PTBP1 RRM1 (single first …); assay: MST; microscale thermophoresis of P-6F with the PTBP1 constructs
PTBP1 RRM12–L151G mutant [4] = target: PTBP1 RRM12–L151G mutant (human); assay: as above
[5] = target: T2, PTBP1 RRM1 and 2 combined (RRM12) (human); assay: fluorescence polarisation; competitive: peptide varied against RRM12 and the FAM-labelled RNA-2 tracer; Ki from loss of RNA binding
T2 construct: Methods and construct limits are not in the main text (supplementary file)

Binder	Kd [1]	Kd (PTBP1 RRM12–L151G mutant [2])	Kd [3]	Kd (PTBP1 RRM12–L151G mutant [4])	Ki [5]
B1	18.6 µM	20.4 µM	98.1 µM	44.5 µM	
B2					11.6 µM
